ChEMBL document CHEMBL2074293, “Function and expression of multidrug resistance-associated protein family in human colon adenocarcinoma cells (Caco-2)” (J Pharmacol Exp Ther, 2000)

Key:
[1] = substrate: C[C@]12CC[C@@H]3c4ccc(O)cc4CC[C@H]3[C@@H]1CC[C@@H]2O[C@@H]1O[C@H](C(=O)O)[C@@H](O)[C@H](O)[C@H]1O; experiment: (§1) TP_TRANSPORTER: uptake in brush-border membrane vesicle from Caco-2 cells; format: functional, cell membranes
[2] = substrate: N[C@@H](CCC(=O)N[C@H](CSc1ccc([N+](=O)[O-])cc1[N+](=O)[O-])C(=O)NCC(=O)O)C(=O)O; experiment: as §1; format: functional, cell membranes

B1: ATP-binding cassette sub-family C member 2 (Homo sapiens) (protein)
chain: MLEKFCNSTFWNSSFLDSPEADLPLCFEQTVLVWIPLGYLWLLAPWQLLHVYKSRTKRSSTTKLYLAKQVFVGFLLILAAIELALVLTEDSGQATVPAVRYTNPSLYLGTWLLVLLIQYSRQWCVQKNSWFLSLFWILSILCGTFQFQTLIRTLLQGDNSNLAYSCLFFISYGFQILILIFSAFSENNESSNNPSSIASFLSSITYSWYDSIILKGYKRPLTLEDVWEVDEEMKTKTLVSKFETHMKRELQKARRALQRRQEKSSQQNSGARLPGLNKNQSQSQDALVLEDVEKKKKKSGTKKDVPKSWLMKALFKTFYMVLLKSFLLKLVNDIFTFVSPQLLKLLISFASDRDTYLWIGYLCAILLFTAALIQSFCLQCYFQLCFKLGVKVRTAIMASVYKKALTLSNLARKEYTVGETVNLMSVDAQKLMDVTNFMHMLWSSVLQIVLSIFFLWRELGPSVLAGVGVMVLVIPINAILSTKSKTIQVKNMKNKDKRLKIMNEILSGIKILKYFAWEPSFRDQVQNLRKKELKNLLAFSQLQCVVIFVFQLTPVLVSVVTFSVYVLVDSNNILDAQKAFTSITLFNILRFPLSMLPMMISSMLQASVSTERLEKYLGGDDLDTSAIRHDCNFDKAMQFSEASFTWEHDSEATVRDVNLDIMAGQLVAVIGPVGSGKSSLISAMLGEMENVHGHITIKGTTAYVPQQSWIQNGTIKDNILFGTEFNEKRYQQVLEACALLPDLEMLPGGDLAEIGEKGINLSGGQKQRISLARATYQNLDIYLLDDPLSAVDAHVGKHIFNKVLGPNGLLKGKTRLLVTHSMHFLPQVDEIVVLGNGTIVEKGSYSALLAKKGEFAKNLKTFLRHTGPEEEATVHDGSEEEDDDYGLISSVEEIPEDAASITMRRENSFRRTLSRSSRSNGRHLKSLRNSLKTRNVNSLKEDEELVKGQKLIKKEFIETGKVKFSIYLEYLQAIGLFSIFFIILAFVMNSVAFIGSNLWLSAWTSDSKIFNSTDYPASQRDMRVGVYGALGLAQGIFVFIAHFWSAFGFVHASNILHKQLLNNILRAPMRFFDTTPTGRIVNRFAGDISTVDDTLPQSLRSWITCFLGIISTLVMICMATPVFTIIVIPLGIIYVSVQMFYVSTSRQLRRLDSVTRSPIYSHFSETVSGLPVIRAFEHQQRFLKHNEVRIDTNQKCVFSWITSNRWLAIRLELVGNLTVFFSALMMVIYRDTLSGDTVGFVLSNALNITQTLNWLVRMTSEIETNIVAVERITEYTKVENEAPWVTDKRPPPDWPSKGKIQFNNYQVRYRPELDLVLRGITCDIGSMEKIGVVGRTGAGKSSLTNCLFRILEAAGGQIIIDGVDIASIGLHDLREKLTIIPQDPILFSGSLRMNLDPFNNYSDEEIWKALELAHLKSFVASLQLGLSHEVTEAGGNLSIGQRQLLCLGRALLRKSKILVLDEATAAVDLETDNLIQTTIQNEFAHCTVITIAHRLHTIMDSDKVMVLDNGKIIECGSPEELLQIPGPFYFMAKEAGIENVNSTKF
- Km [1]: 9.4 µM
- Km [2]: 16.9 µM
